Laboratory results published in patent US20090130105A1 (Biogen, published 2009).
Blank lines part the entries; values can stand above or below the binder they belong to.

Columns and labels:
[1] = target: T1, hIGF-1R-Fc mutant SD207 (G265Y) (human, UniProt P08069 31-933); assay: SPR, antibody over captured mutant
T1 construct: not shown: human IgG1 Fc, C-terminal tag
Method: (§1) Surface plasmon resonance (SPR) experiments were performed on a Biacore 3000 instrument set to 25° C. […] The antibody sensorchip surfaces were prepared by injecting each antibody (diluted 100 μg/mL in 10 mM Acetate, pH 4.0) over EDC/NHS-activated sensorchip surfaces according to the standard protocol of the manufacturer. […] Both hIGF-1R-Fc and mIGF-1R-Fc proteins oligomerize due to the incorporation of two separate homodimeric regions (IGF-1R and IgG1-Fc). […] After, completion of the receptor-Fc loading step, flow rates were elevated to 5 μl/min. […] Dissociation was measured for 7 minutes after the antibody injections were complete. Finally, the flow rate was elevated to 30 μL/min and the chip surfaces were regenerated by 2×10 μL injections of 0.1 M glycine, pH 2.

[2] = target: T2, hIGF-1R-Fc mutant SD203 (N254A) (human, UniProt P08069 31-933); assay: SPR, antibody over captured mutant
T2 construct: not shown: human IgG1 Fc, C-terminal tag
T2 sequence (P08069 31-933 N284A): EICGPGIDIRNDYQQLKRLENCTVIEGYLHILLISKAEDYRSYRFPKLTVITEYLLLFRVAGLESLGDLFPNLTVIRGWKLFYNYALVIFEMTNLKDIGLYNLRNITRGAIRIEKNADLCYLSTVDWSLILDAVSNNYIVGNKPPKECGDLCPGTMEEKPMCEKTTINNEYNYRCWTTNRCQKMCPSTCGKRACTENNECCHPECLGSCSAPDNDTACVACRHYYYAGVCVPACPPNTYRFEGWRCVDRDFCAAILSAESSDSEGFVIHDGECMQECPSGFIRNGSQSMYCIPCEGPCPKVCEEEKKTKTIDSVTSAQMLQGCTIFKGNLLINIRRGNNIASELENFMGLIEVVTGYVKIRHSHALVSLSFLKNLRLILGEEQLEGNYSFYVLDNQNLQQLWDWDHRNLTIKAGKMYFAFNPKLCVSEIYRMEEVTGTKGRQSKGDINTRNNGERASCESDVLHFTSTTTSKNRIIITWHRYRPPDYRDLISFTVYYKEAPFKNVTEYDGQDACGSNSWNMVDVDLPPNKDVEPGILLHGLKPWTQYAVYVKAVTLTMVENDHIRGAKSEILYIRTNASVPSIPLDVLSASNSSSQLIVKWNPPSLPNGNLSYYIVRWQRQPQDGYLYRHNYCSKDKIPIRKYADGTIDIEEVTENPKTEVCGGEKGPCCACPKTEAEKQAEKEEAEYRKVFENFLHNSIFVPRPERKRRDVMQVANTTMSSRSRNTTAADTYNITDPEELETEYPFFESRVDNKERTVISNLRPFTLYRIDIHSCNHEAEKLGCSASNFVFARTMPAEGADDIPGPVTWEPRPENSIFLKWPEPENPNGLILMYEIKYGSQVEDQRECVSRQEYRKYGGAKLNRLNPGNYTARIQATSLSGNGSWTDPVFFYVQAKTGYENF
Method: as §1

[3] = target: T3, human IGF-1R(1-903)-Fc (human, UniProt P08069 31-933); assay: competition ELISA: antibody diluted in 320 nM human IGF-1 His, added to biotinylated hIGF-1R-Fc on streptavidin plates, bound IGF-1 His detected with anti-His-HRP (blocked ligand: IGF-1 His)
T3 construct: also called hIGF-1R-Fc; SDWT; not shown: human IgG1 Fc, C-terminal tag
T3 sequence (P08069 31-933): as the sequence (P08069 31-933 N284A) above, with A254N counted along it
Method: (§2) hIGF-1R-Fc was biotinylated using EZ-Link Sulfo-NHS-LC-Biotin according to the protocol provided by the manufacturer (Pierce Cat. No. 21335). Biotinylated human IGF-1R Fc (NB12453-9) at 5 μg/ml was added to the wells of SigmaScreen streptavidin-coated 96-well plates (Sigma, Cat. No. M5432-5EA) at 100 μL/well and incubated overnight at 2-8° C. The plates were then washed four times with 200 μL/well PBST. […] The dilutions were added to the plates in duplicate at 100 μL/well and the plates were incubated at RT for 1 hour. The plates were then washed four times with 200 μL/well PBST. An HRP-conjugated anti-Histag antibody (Penta-His HRP Conjugate, QIAGEN, Cat. No. 1014992) was diluted 1:1000 in PBST and added to plates at 100 μL/well, and the plates were incubated at RT for one hour. The plates were then washed four times with 200 μL/well PBST. SureBlue Reserve TMB Microwell Peroxidase Substrate (KPL, Cat. No. 53-00-01) was added to plates at 100 μL/well followed by 1% phosphoric acid at 100 μL/well once the desired reaction was observed. The absorbance of each well was determined at 450 nm, and the results were normalized and plotted against the log of antibody concentration.

[4] = target: T4, hIGF-1R-Fc mutant SD103 (D461A, V462T) (human, UniProt P08069 31-933); assay: SPR, immobilized antibody
T4 construct: not shown: human IgG1 Fc, C-terminal tag
T4 sequence (P08069 31-933 D491A/V492T): as the sequence (P08069 31-933 N284A) above, with A254N, D461A, V462T counted along it
Method: as §1

[5] = target: T3, human IGF-1R(1-903)-Fc; assay: competition ELISA: antibody diluted in human IGF-2 His solution, added to biotinylated hIGF-1R-Fc on streptavidin plates, bound IGF-2 His detected with anti-His-HRP (blocked ligand: IGF-2 His)
Method: as §2

T1 sequence (P08069 31-933 G295Y): as the sequence (P08069 31-933 N284A) above, with A254N, G265Y counted along it

B1: P1E2 chimeric antibody (antibody, V domains shown)
VH: QVQLQQPGAELVKPGASVKLSCKASGYTFTSYWMHWVKQRPGQGLEWIGEINPTYGRSNYNEKFKSKATLTVDKSSSTAYMQLSSLTSEDSAVYYCARLVRLRYFDVWGAGTTVTVSS
VL: DIVMTQAAFSNPVTLGTSASISCRSSKSLLHSNGITYLYWYLQKPGQSPQLLIYQMSNLASGVPDRFSSSGSGTDFTLRISRVEAEDVGVYYCAQNLELPYTFGGGTKLEIK
notes: also called DE12 Chimera; P1E2.3B12 variable domains
binding result [1]: no binding (tested: up to 30 nM antibody)
binding result [2]: no binding (tested: up to 30 nM antibody)

IC50 (read off the curve) [3]: ~5 nM
binding result [4]: no binding
IC50 (read off the curve) [5]: ~1 nM
B2: M14-C03 antibody (antibody, V domains shown)
VH: EVQLLESGGGLVQPGGSLRLSCAASGFTFSKYMMSWVRQAPGKGLEWVSYISPSGGLTWYADSVKGRFTISRDNSKNTLYLQMNSLRAEDTAVYYCARDGARGYGMDVWGQGTTVTVSS
VL: DIQMTQSPATLSLSPGERATLSCRASQSVSSYLAWYQQKPGQAPRLLIYDASNRATGIPARFSGSGSGTDFTLTISSLEPEDFAVYYCQQRSNWPPEVTFGPGTKVDIK
notes: Fully human full-length antibody (ATCC PTA-7445); also called M14.C03.G4.P.agly
